B1: βarrestin2 1-185: truncated form of βarrestin2 containing amino acids 1-185, dominant negative mutant; overexpressed in Hep3B or delivered by adenovirus (protein)
chain: MGEKPGTRVFKKSSPNCKLTVYLGKRDFVDHLDKVDPVDGVVLVDPDYLKDRKVFVTLTCAFRYGREDLDVLGLSFRKDLFIATYQAFPPVPNPPRPPTRLQDRLLRKLGQHAHPFFFTIPQNLPCSVTLQPGPEDTGKACGVDFEIRAFCAKSLEEKSHKRNSVRLVIRKVQFAPEKPGPQPSA
modifications: left off: small tags and cut ends
notes: overexpressed in Hep3B or delivered by adenovirus
B2: βarrestin2 186-409: truncated mutant of βarrestin2 that interacts with IR but not Akt or Src; overexpressed in Hep3B or delivered by adenovirus (protein)
chain: ETTRHFLMSDRSLHLEASLDKELYYHGEPLNVNVHVTNNSTKTVKKIKVSVRQYADICLFSTAQYKCPVAQLEQDDQVSPSSTFCKVYTITPLLSDNREKRGLALDGKLKHEDTNLASSTIVKEGANKEVLGILVSYRVKVKLVVSRGGDVSVELPFVLMHPKPHDHIPLPRPQSAAPETDVPVDTNLIEFDTNYATDDDIVFEDFARLRLKGMKDDDYDDQLC
modifications: left off: small tags and cut ends
notes: as for B1

Assays:
PI3K = PI3K activity (ELISA) in liver of mice injected with insulin; type: in vivo, mouse; settings: insulin 1 U·kg^−1 for 10 min; wild type, βarr2-ko and βarr2-tg mice
Method: (§1) FIG. 4A, Activation of PI3K by insulin in livers of βarr2-ko mice (n=6), βarr2-tg mice (n=6) and their wild type littermates (n=6). Mice were injected with either saline or insulin (1 U·kg^−1) for 10 min. PI3K were immuno-purified from liver extracts and PI3K activity were measured by ELISA. Data are presented as mean ±s.e.m. *P<0.05, **P<0.005, versus control. FIG. 4B, FIG. 4C, Activation of Akt and downstream targets by insulin in livers of βarr2-ko mice (n=6) (FIG. 4B), βarr2-tg mice (n=6) (FIG. 4C) and their wild type littermates (n=6). Liver protein extracts prepared as in A were used for immunoblot analysis of pAkt, pFoxol, and pGSK3. […] FIG. 4E, Src-dependent activation of Akt. Hep3B hepatocytes were treated with or without 10 μM Src inhibitor PP2 or 100 nM PI3K inhibitor Wortmanin for 30 min, and then stimulated by 100 nM insulin. Phosphorylation levels of Akt at serine/threonine or tyrosine (n=6) were shown. FIG. 4F, Tyrosine phosphorylation of Akt induced by insulin in livers of βarr2-ko mice (n=6), βarr2-tg mice (n=6) and their wild type littermates (n=6). Akt immuno-purified from protein extracts made in FIG. 4B and FIG. 4C was subjected to immunoblot using antibodies against phosphorylated tyrosine. All mice were 8-weeks old fed with a regular diet. Data are presented as mean ±s.e.m. *P<0.05, **P<0.005, versus control. […]

Akt [1] = assay: Akt phosphorylation in liver of mice injected with insulin (immunoblot); type: in vivo, mouse
Method: as §1, with “shown.” for “shown. FIG. 4F, Tyrosine phosphorylation of Akt induced by insulin in livers of βarr2-ko mice (n=6), βarr2-tg mice (n=6) and their wild type littermates (n=6). Akt immuno-purified from protein extracts made in FIG. 4B and FIG. 4C was subjected to immunoblot using antibodies against phosphorylated tyrosine. All mice were 8-weeks old fed with a regular diet. Data are presented as mean ±s.e.m. *P<0.05, **P<0.005, versus control.”
(§2) After mouse is sacrificed, mouse tissues are quickly excised and frozen in liquid nitrogen. Tissue lysate is prepared and protein concentration is determined by Bradford method. […] For immunoblotting, protein bands, emitting infrared fluorescence through excitation of IRDye800CW conjugated secondary antibody, are obtained by Odyssey infrared imaging system, followed by using Scion Image software (Li-Cor Bioscience, Lincoln, Nebr., USA) to perform quantitative analysis. […]

[2] = tested on: Akt/βarrestin2/Src complex; assay: Akt/βarrestin2/Src complex formation in liver of C57BL/6 mice injected with insulin (immunoprecipitation); type: in vivo, mouse; settings: C57BL/6 mice livers, intraperitoneal insulin 1 U·kg^−1, time-dependent
Method: (§3) C57BL/6 mice (n=6) were injected with 1 U·kg^−1 insulin for the indicated times, and liver protein extracts were prepared for immunoprecipitation using anti-Akt antibodies. […] Liver protein extracts prepared as described in a were subjected to immunoprecipitation for IRβ. […] Liver protein extracts prepared from βarr2-ko (n=6), βarr2-tg (n=6), their wild type littermates (n=6) as described were subjected to immunoprecipitation for IRβ. Akt and Src associated with IRβ were detected on immunoblots. […] Hep3B hepatocytes overexpressing HA-βarrestin2 186-409 or βGal were subjected for immunoblot analysis of pAkt, pFoxol, and pGSK3. All mice were 8-weeks old fed with a regular diet.
as §2, with “method. For immunoprecipitation, add relevant antibodies to cell lysate, incubate at 4° C. overnight, add protein A or protein G agarose beads, incubate at 4° C. for 2 h.” for “method.”

[3] = tested on: wild type littermates and βarr2-ko mice; assay: Insulin tolerance tests (ITTs); type: in vivo, mouse; settings: intraperitoneal 1 U·kg^−1 insulin
Method: (§4) For GTTs, mice are injected intraperitoneal with glucose after starvation for 6 hours. Blood glucose is measure at indicated time points. Mice are injected intraperitoneally under fed conditions for ITTs. Blood are collected and determined the glycemia using a glucometer (Roche Accu-chek). Serum insulin levels are measured using rat/mouse ELISA kit.

Akt [4] = assay: Insulin-stimulated Akt phosphorylation in Hep3B hepatocytes treated with inhibitors (immunoblot); type: cell-based, human; settings: 10 μM PP2 or 100 nM Wortmannin for 30 min, then 100 nM insulin
Method: as §1, with “shown.” for “shown. FIG. 4F, Tyrosine phosphorylation of Akt induced by insulin in livers of βarr2-ko mice (n=6), βarr2-tg mice (n=6) and their wild type littermates (n=6). Akt immuno-purified from protein extracts made in FIG. 4B and FIG. 4C was subjected to immunoblot using antibodies against phosphorylated tyrosine. All mice were 8-weeks old fed with a regular diet. Data are presented as mean ±s.e.m. *P<0.05, **P<0.005, versus control.”
as §2

C57BL/6 mice = assay: Adenovirus encoding βarrestin2 mutants injected into C57BL/6 mice (blood glucose, GTTs, ITTs); type: in vivo, mouse; settings: for insulin tolerance in ITTs: 1 U·kg^−1, 7 days after adenovirus injection; for glucose tolerance in GTTs: 1 g·kg^−1, 7 days after adenovirus injection; for blood glucose levels: adenovirus, all time points, vs control mice
From the text: C57BL/6 mice were 8 -weeks old fed on regular diet (RD). Data are presented as mean ±s.e.m. *P<0.05, **P<0.005, versus control.
(§5) βarr1-ko and βarr2-ko mice are provided by Dr. Robert J. Lefkowitz (Duke University Medical Center, Durham, N.C.). βarr1-tg and βarr2-tg mice are generated as described (Shi, Y., et al., “Critical regulation of CD4+ T cell survival and autoimmunity by beta-arrestin 1,” Nature Immunol., 8, 817-24 (2007)). All other mice are from Shanghai Laboratory Animal Center, Chinese Academy of Sciences. Animal experiments are performed in accordance with the National Institutes of Heath Guide for the Care and Use of Laboratory Animals. Mice are fed with a regular diet (Formulab 5008, Labdiet 5053) or high-fat diet (55% fat calories) (Harlan-Teklad 93075) and have free access to water and diet. Adenovirus (7×10^9 viral particle/100 μl saline) is injected into the tail vein of db/db mice and C57BL/6 to specifically target the liver. Body weight and food intake are measured as described in: Netea, M. G., et al., “Deficiency of interleukin-18 in mice leads to hyperphagia, obesity and insulin resistance,” Nature Medicine, 12, 650-6 (2006).
as §4
The CsCl purified adenovirus are used as a saline solution (7×10^9 virus particles per […]) and injected through tail vein.

Src = target: T1, Src (Homo sapiens, UniProt P12931); assay: Co-immunoprecipitation of βarrestin2 truncation mutants with Src in Hep3B hepatocytes; type: binding; settings: HA-tagged mutant
T1 construct: Full length of Akt and Src are cloned into modified pcDNA3 vector in-frame with HA or Flag at the N-terminus; expressed in transfected cells; host or cells: Hep3B
From the text: (§6) FIG. 5B, Interaction of Akt and Src in liver of wild type littermates but not βarr2-ko mice. Liver protein extracts from βarr2-ko mice (n=6) and their wild type littermates (n=6) were used for immunoprecipitation by anti-Akt or anti-Src antibodies. FIG. 5C, Enhanced interaction of Akt and Src in liver of βarr2-tg mice. Liver protein extracts from βarr2-tg mice (n=6) and their wild type littermates (n=6) were used for immunoprecipitation by anti-Akt or anti-Src antibodies. […] HA-βarrestin2 that co-immunoprecipitated from Hep3B hepatocytes overexpressing Akt or Src without or with HA-βarrestin2, HA-βarrestin2 1-185 was shown on immunoblots using anti-HA antibodies (n=3). […]
(§7) C57BL/6 mice (n=6) were injected with 1 U·kg^−1 insulin for the indicated times, and liver protein extracts were prepared for immunoprecipitation using anti-Akt antibodies. […] Akt and Src associated with IRβ were detected on immunoblots. […]
as §2

Akt [5] = assay: Co-immunoprecipitation of βarrestin2 truncation mutants with Akt in Hep3B hepatocytes; type: binding, human; settings: HA-tagged mutant
From the text: as §6, §7, §2

db/db diabetic mice = assay: Adenovirus injection into db/db diabetic mice (blood glucose, GTTs, ITTs, body weight, food intake, liver βarrestin2); type: in vivo, mouse; settings: adenovirus encoding mutant, vs βGal
Method: as §5
For GTTs, mice are injected intraperitoneal with glucose after starvation for 6 hours. Blood glucose is measure at indicated time points. Mice are injected intraperitoneally under fed conditions for ITTs. Blood are collected and determined the glycemia using a glucometer (Roche Accu-chek). Serum insulin levels are measured using rat/mouse ELISA kit. […]

Akt [6] = assay: Insulin-stimulated pAkt, pFoxo1, pGSK3 in Hep3B hepatocytes overexpressing βarrestin2 mutants (immunoblot); type: cell-based, human; settings: overexpressed in Hep3B hepatocytes, vs βGal
From the text: FIG. 5B, Interaction of Akt and Src in liver of wild type littermates but not βarr2-ko mice. Liver protein extracts from βarr2-ko mice (n=6) and their wild type littermates (n=6) were used for immunoprecipitation by anti-Akt or anti-Src antibodies. FIG. 5C, Enhanced interaction of Akt and Src in liver of βarr2-tg mice. Liver protein extracts from βarr2-tg mice (n=6) and their wild type littermates (n=6) were used for immunoprecipitation by anti-Akt or anti-Src antibodies. […] HA-βarrestin2 that co-immunoprecipitated from Hep3B hepatocytes overexpressing Akt or Src without or with HA-βarrestin2, HA-βarrestin2 1-185 was shown on immunoblots using anti-HA antibodies (n=3). FIG. 5F, Hep3B hepatocytes overexpressing HA-βarrestin2 1-185 or βGal were subjected to immunoprecipitation using anti-Akt antibodies. Akt, Src in the immunopurified complex were shown on immunoblots (n=3). […] Hep3B hepatocytes overexpressing HA-βarrestin2 1-185 or βGal were stimulated by insulin and then subjected to immunoblot analysis of pAkt, pFoxol, and pGSK3. All mice were 8-weeks old fed with a regular diet.
as §3
(§8) After mouse is sacrificed, mouse tissues are quickly excised and frozen in liquid nitrogen. Tissue lysate is prepared and protein concentration is determined by Bradford method. For immunoprecipitation, add relevant antibodies to cell lysate, incubate at 4° C. overnight, add protein A or protein G agarose beads, incubate at 4° C. for 2 h. Proteins that bind protein A or protein G agarose beads are washed in SDS sample buffer and treated at 50° C. for 20 min followed by SDS-PAGE separation and through immunoblotting method to determine relevant proteins. For immunoblotting, protein bands, emitting infrared fluorescence through excitation of IRDye800CW conjugated secondary antibody, are obtained by Odyssey infrared imaging system, followed by using Scion Image software (Li-Cor Bioscience, Lincoln, Nebr., USA) to perform quantitative analysis. […]

Akt/Src complex = assay: Akt/Src interaction in Hep3B hepatocytes overexpressing βarrestin2 mutant (anti-Akt immunoprecipitation); type: cell-based, human; settings: overexpressed in Hep3B hepatocytes, vs βGal
From the text: as §6, with “(n=3). FIG. 5F, Hep3B hepatocytes overexpressing HA-βarrestin2 1-185 or βGal were subjected to immunoprecipitation using anti-Akt antibodies. Akt, Src in the immunopurified complex were shown on immunoblots (n=3).” for “(n=3).”
as §2

IRβ = target: T2, IRβ (Homo sapiens, UniProt P06213); assay: Co-immunoprecipitation of βarrestin2 truncation mutants with IRβ in Hep3B hepatocytes; type: binding; settings: HA-tagged mutant
T2 construct: IR immunoprecipitated from Hep3B hepatocytes; endogenous in cells; host or cells: Hep3B
Method: as §3
as §8, with “Proteins that bind protein A or protein G agarose beads are washed in SDS sample buffer and treated at 50° C. for 20 min followed by SDS-PAGE separation and through immunoblotting method to determine relevant proteins.” left out

Molecule | insulin tolerance in ITTs (C57BL/6 mice) | glucose tolerance in GTTs (C57BL/6 mice) | blood glucose levels (C57BL/6 mice) | interaction with Src (Src) | interaction with Akt (Akt [5]) | insulin resistance (db/db diabetic mice) | insulin-stimulated phosphorylation (activation) of Akt (Akt [6]) | further results
insulin: insulin injected into mice or added to cells as stimulus | – | – | – | – | – | – | – | increase in PI3K activity in liver (PI3K): ~3 fold; increase in tyrosine phosphorylation of Akt (Akt [1]; liver of wild type mice, insulin stimulation): ~2 fold; increase in the phosphorylation of Akt at Thr308 or Ser473 in liver (Akt [1]; wild type mice, insulin 1 U·kg^−1 for 10 min): ~3 fold; Akt/Src interactions [2]: marked increase; Akt/βarrestin2 association [2]: marked increase; blood glucose in ITTs [3]: time-dependent reduction
CC(C)(C)n1nc(-c2ccc(Cl)cc2)c2c(N)ncnc21 [PP2] | – | – | – | – | – | – | – | serine/threonine phosphorylation of Akt (Akt [4]): remarkably reduced; tyrosine phosphorylation of Akt (Akt [4]): remarkably reduced
B1 | impair | impair | higher | interacts with Src | not Akt | aggravates | markedly reduced | insulin-stimulated phosphorylation of Foxo1 (Akt [6]): markedly reduced; insulin-stimulated phosphorylation of GSK3 (Akt [6]): markedly reduced; Akt/Src interactions (Akt/Src complex): inhibits
B2 | impair | impair | higher | not Akt or Src | not Akt or Src | aggravates | suppresses | interaction with IRβ (IRβ): interacts with IRβ

From patent publication US8536121B2, “Methods and reagents for the diagnosis, prevention and treatment of insulin resistance using beta-arrestin2 and its up-regulators” (Shanghai Institutes for Biological Sciences, CAS, priority 2008, dated 2013)
